Legend:
[1] = target: ZFPm1 six-finger zinc finger protein (Sp1C framework) (artificial); assay: ELISA, 31.0 ug/ml protein, non-target; settings: tags: MBP fusion (pMAL-C2), E. coli; label: 5'-biotin; hairpin
Method: (§1) Coat ELISA plates (Costar 3690) with streptavidin. Use 25 ul/well of 8 ug/ml streptavidin in PBS. Incubate at 37° C. for 1 hr. Wash 2× with dH2O. Bind wells with 25 ul/well of 4 ng/ul biotinylated target oligonucleotide in PBS. Incubate at 37° C. for 1 hr. Wash 2× with dH2O. Block with 175 ul/well of 3% BSA in Zn Buffer A. Incubate at 37° C. for 1 hr. Tap plates dry. Perform 1:2 serial dilutions of extract in Binding Buffer (1%BSA, 5 mM DTT, .12 ug/ul Salmon Sperm DNA in ZnBA). Usually from 1:4 to 1:512 for multi-target ELISA or 1:4 to 1:32 for screening clones for specific DNA binding activity. Incubate 1 hr at room temperature. Wash 8× with dH2O. Add primary antibody: 25 ul/well of 1:1000 dilution of mouse anti-MBP (Sigma M-6295) in 1%BSA ZnBA (no DTT). Incubate 30 min at room temperature. Wash 8× with dH2O. Add secondary antibody: 25 ul/well of 1:1000 dilution of goat anti-mouse/Alkaline Phosphatase (Pierce 31324) in 1%BSA ZnBA (no DTT). Incubate 30 min at room temperature. Wash 8× with dH2O. Develop with 25 ul developer (1 tablet of Sigma 104 Phosphatase Substrate (Sigma 104-105)/5 ml AP Developing Buffer [100 ml diethanolamine+0.05 g MgCl2+97.5 Sodium Azide, adjust to 500 ml with ddH2O, pH 9.88]). Incubate at room temperature for 5-60 min until color reaction is yellow. Read A405 with a plate reader.
(§2) To evaluate the specificity of new zinc finger protein, the affinity of each protein was determined for binding to the target sequence and several non-target sequences at appropriate protein concentration. For example, to protein ZFPm1 and ZFPm2, the non-target oligoes are: Oligo m34 (SEQ ID NO:20), Oligo Ap3 (SEQ ID NO:21), NRI-1 (SEQ ID NO:22), NRI-2 (SEQ ID NO:23), hHD-I (SEQ ID NO:24), hHD-II (SEQ ID NO:25), c5cl-g (SEQ ID NO:26), c5p3-g (SEQ ID NO:27), B3c2 (SEQ ID NO:28), and e2c-g (SEQ ID NO:29). Similarly, to protein ZFPm3 and ZFPm4, the non-target oligoes are Oligo m12 (SEQ ID NO:19), oligo Ap3 (SEQ ID NO:21), and the eight other oligoes. To protein ZFPAp3, the non-target oligoes are Oligo m12, oligo m34 (SEQ ID NO:20), and the eight other oligoes. The affinity reading for target oligo was further normalized to the no oligo control which has the least affinity.

[2] = target: ZFPAp3 six-finger zinc finger protein (Sp1C framework) (artificial); assay: ELISA, 31.0 ug/ml protein, non-target; settings: tags: MBP fusion (pMAL-C2), E. coli; label: 5'-biotin; hairpin
Method: as §1, §2

[3] = target: ZFPm4 six-finger zinc finger protein (Sp1C framework) (artificial); assay: ELISA, 15.5 ug/ml protein, non-target; settings: tags: MBP fusion (pMAL-C2), E. coli; label: 5'-biotin; hairpin
Method: as §1, §2

[4] = target: ZFPm2 six-finger zinc finger protein (Sp1C framework) (artificial); assay: ELISA, 15.5 ug/ml protein, non-target; settings: tags: MBP fusion (pMAL-C2), E. coli; label: 5'-biotin; hairpin
Method: as §1, §2

[5] = target: ZFPm3 six-finger zinc finger protein (Sp1C framework) (artificial); assay: ELISA, 1.9 ug/ml protein, non-target; settings: tags: MBP fusion (pMAL-C2), E. coli; label: 5'-biotin; hairpin
Method: as §1, §2

ZFPm4-VP64 = ZFPm4-VP64 (artificial); assay: cell_activity; endogenous MIPS in maize HE89 protoplasts; settings: tags: VP64
Excerpt: A maize type II cell line HE89 was used to evaluate the ZFPmips-effector fusion constructs function (FIG. 22). Protoplasts from HE89 suspension cells were isolated and transformed using standard procedures (Chourey and Zurawski, 1981). The activation constructs pND3015, pND3023, pND3024, and pND3016 were transformed into freshly prepared protoplasts. The transcription level of MIPS gene was detected through quantitative PCR. With pND3016 (ZFPm4-VP64 activation constructs), at least 2-fold of activation is detected (FIG. 23). We also measured phytic acid concentration in maize tissues that were transformed by the activation construct of pND3016.

ZFPAp3 six-finger zinc finger protein (Sp1C framework) (artificial), sequence (chain, as listed by the source): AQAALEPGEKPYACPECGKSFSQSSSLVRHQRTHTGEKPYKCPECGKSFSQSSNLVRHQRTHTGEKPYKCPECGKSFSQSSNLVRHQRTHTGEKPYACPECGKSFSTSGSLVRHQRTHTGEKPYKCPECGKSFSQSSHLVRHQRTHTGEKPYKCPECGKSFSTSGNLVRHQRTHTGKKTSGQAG
ZFPm2 six-finger zinc finger protein (Sp1C framework) (artificial), sequence (chain, as listed by the source): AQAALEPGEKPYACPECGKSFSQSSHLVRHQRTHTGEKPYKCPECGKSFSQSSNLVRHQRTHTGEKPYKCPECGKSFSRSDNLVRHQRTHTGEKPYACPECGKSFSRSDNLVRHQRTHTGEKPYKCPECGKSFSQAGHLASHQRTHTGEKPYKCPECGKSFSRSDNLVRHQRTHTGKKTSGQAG
ZFPm3 six-finger zinc finger protein (Sp1C framework) (artificial), sequence (chain, as listed by the source): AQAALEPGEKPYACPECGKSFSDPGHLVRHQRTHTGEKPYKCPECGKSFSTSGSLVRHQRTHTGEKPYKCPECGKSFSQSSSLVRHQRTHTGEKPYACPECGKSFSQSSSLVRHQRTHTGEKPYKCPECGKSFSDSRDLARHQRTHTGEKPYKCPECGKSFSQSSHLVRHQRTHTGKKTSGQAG
ZFPm1 six-finger zinc finger protein (Sp1C framework) (artificial), sequence (chain, as listed by the source): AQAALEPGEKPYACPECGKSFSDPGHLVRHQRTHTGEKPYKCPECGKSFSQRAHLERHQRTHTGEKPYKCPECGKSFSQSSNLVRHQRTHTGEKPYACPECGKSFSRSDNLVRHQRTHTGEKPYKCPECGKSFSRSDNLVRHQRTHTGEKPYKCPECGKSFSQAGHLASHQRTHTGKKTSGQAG

Binder: GGGGCAGCCCCCACGGCGCCGGGTTTTCCCGGCGCCGTGGGGGCTGCCCC (dsDNA) [hHD-II]
- binding signal [1]: 4 fold over no oligo
- binding signal [2]: 2 fold over no oligo
- binding signal [3]: 2 fold over no oligo
- binding signal [4]: 2 fold over no oligo
- binding signal [5]: 3 fold over no oligo

Binder: GGTGCGGCGACTGCAGCAGCGGGTTTTCCCGCTGCTGCAGTCGCCGCACC (dsDNA) [NRI-2]
- binding signal [1]: 4 fold over no oligo
- binding signal [2]: 4 fold over no oligo
- binding signal [3]: 3 fold over no oligo
- binding signal [4]: 2 fold over no oligo
- binding signal [5]: 6 fold over no oligo

Binder: GGCACTGCGGCTCCGGCCCCGGGTTTTCCCGGGGCCGGAGCCGCAGTGCC (dsDNA) [e2c-g]
- binding signal [1]: 2 fold over no oligo
- binding signal [2]: 3 fold over no oligo
- binding signal [3]: 5 fold over no oligo
- binding signal [4]: 2 fold over no oligo
- binding signal [5]: 9 fold over no oligo

Binder: GGGGCCCCGCCTCCGCCGGCGGGTTTTCCCGCCGGCGGAGGCGGGGCCCC (dsDNA) [hHD-I]
- binding signal [1]: 5 fold over no oligo
- binding signal [2]: 2 fold over no oligo
- binding signal [3]: 2 fold over no oligo
- binding signal [4]: 3 fold over no oligo
- binding signal [5]: 1 fold over no oligo

B1: m4 endogenous MIPS target site (dsDNA)
DNA 1: GGTGAGGGAGCCGTAGTA
DNA 2: TACTACGGCTCCCTCACC
- activity (ZFPm4-VP64): ≥ 2 fold activation

Binder: GGGACACCCCCAACCCCGCCGGGTTTTCCCGGCGGGGTTGGGGGTGTCCC (dsDNA) [c5c1-g]
- binding signal [1]: 7 fold over no oligo
- binding signal [2]: 2 fold over no oligo
- binding signal [3]: 3 fold over no oligo
- binding signal [4]: 5 fold over no oligo
- binding signal [5]: 3 fold over no oligo

Binder: GGACCCACCGCGTCCCCTCCGGGTTTTCCCGGAGGGGACGCGGTGGGTCC (dsDNA) [B3c2]
- binding signal [1]: 4 fold over no oligo
- binding signal [2]: 3 fold over no oligo
- binding signal [3]: 5 fold over no oligo
- binding signal [4]: 4 fold over no oligo
- binding signal [5]: 3 fold over no oligo

Source: patent US20030037355, “Methods and compositions to modulate expression in plants” (published 2003)
